The series has as its target peptide substrate shown in FIG. 9a (Protease K substrate).

B1: Protease K (protein)
chain: AAQTNAPWGLARISSTSPGTSTYYYDESAGQGSCVYVIDTGIEASHPEFEGRAQMVKTYYYSSRDGNGHGTHCAGTVGSRTYGVAKKTQLFGVKVLDDNGSGQYSTIIAGMDFVASDKNNRNCPKGVVASLSLGGGYSSSVNSAAARLQSSGVMVAVAAGNNNADARNYSPASEPSVCTVGASDRYDRRSSFSNYGSVLDIFGPGTSILSTWIGGSTRSISGTSMATPHVAGLAAYLMTLGKTTAASACRYIADTANKGDLSNIPFGTVNLLAYNNYQA
For B1, the “ratio of the absorption at 700 nm/520 nm (750 nM peptide, Protease K up to 300 pM, 60 min, 20 C)” value is “With increasing amounts of protease K the spectrum shifts back toward the native spectrum seen in the gold nanoparticles alone and the ratio falls to nearly 0”.

The values above are taken from patent US20170226560.
